For assay [1], the target named is T1, catalytic domain of human MMP-14 (cdMMP-14) (human, UniProt P50281 114-320).
T1 construct: range 114-320; Produced active in E. coli periplasm; biotinylated for BLI/ELISA
Briefly: bio-layer interferometry (ForteBio), biotinylated protease on streptavidin biosensor, Fab in solution [panel 2B10]. A general note: Biolayer interferometry detects binding as a change in optical thickness at a sensor tip.
Experimental: (§1) Binding kinetics of produced antibodies towards associated protease targets were analyzed by using biolayer interferometry (ForteBio). For Fabs, biotinylated proteases were immobilized on streptavidin biosensors, and Fab binding to the sensors in absence of protease was monitored as backgrounds.

Assay [2] has as its target T1, catalytic domain of human MMP-14 …. The assay is described as follows: enzyme inhibition assay with FRET peptide substrate (M-2350), Fab titrated on cdMMP-14 [panel 2B10].
Experimental: (§2) For inhibition tests, 1 μM Fabs were 2-fold serially diluted into protease specific assay buffer and incubated with 1-10 nM proteases for 30 min at room temperature. […] Inhibition percentages at given concentrations were calculated by comparing the initial reaction rates in the presence or absence of inhibitor. […] Vₘₐₓ and Kₘ at various Fab concentrations were measured to determine the inhibition type. FRET inhibition assays were also used for selectivity tests of isolated Fabs with the relevant proteases.
Assay [3] has the same target. Briefly: FRET peptide inhibition assay; KI=IC50/(S/Km+1).
Experimental: as §2
Assay [4] shares this target. The assay is described as follows: biolayer interferometry; biotinylated protease on streptavidin sensor, Fab in solution.
Experimental: as §1
Assay [5] deals with T2, human MMP-12 catalytic domain wild type (cdMMP-12 wt) (human, UniProt P39900 106-263).
T2 construct: biotinylated for ELISA/BLI; also called wt cdMMP-12; cdMMP-12 wide-type
T2 sequence (P39900 other isoform, or with tags, fused parts or gaps limits assumed): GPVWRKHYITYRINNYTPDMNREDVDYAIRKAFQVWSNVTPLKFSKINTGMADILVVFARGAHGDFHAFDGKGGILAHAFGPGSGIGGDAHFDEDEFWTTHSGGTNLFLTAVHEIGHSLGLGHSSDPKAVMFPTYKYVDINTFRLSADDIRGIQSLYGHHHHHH
The assay is described as follows: competitive ELISA: nTIMP-2 (0.8-200 µM) premixed with 500 nM Fab LG4 (the competitor displaced), added to immobilised cdMMP-12 wt, bound Fab detected with anti-Fab-HRP (OD450) [panel B, right]. For orientation: In an ELISA, binding on a coated surface is turned into a signal by an enzyme label.
Experimental: (§3) On streptavidin coated ELISA plates, 5 μg/mL biotinylated cdMMPs were immobilized and incubated with two-fold serially diluted purified Fabs. Bound Fabs were detected with anti-Fab-HRP (Sigma-Aldrich), and signals were developed by TMB substrate (Thermo Scientific) and measured using a microplate reader (BioTek). […] Bound Fabs were detected using anti-Fab-HRP.

The target in assay [6] is T2, human MMP-12 catalytic domain wild type …. Briefly: competitive ELISA: nTIMP-2 (0.8-200 µM) premixed with 500 nM Fab LH11 (the competitor displaced), added to immobilised cdMMP-12 wt, bound Fab detected with anti-Fab-HRP (OD450) [panel B, right].
Experimental: as §3
In assay [7] the target is T3, human MMP-12 catalytic domain mutant D4 (cdMMP-12 D4) (human).
T3 construct: PROSS-designed expression-optimised mutant; Cytoplasmically expressed in E. coli, purified on Ni-NTA; biotinylated for ELISA/BLI; also called cdMMP-12 mutant D4; modified D4
T3 sequence (chain, as listed by the source mutant limits assumed): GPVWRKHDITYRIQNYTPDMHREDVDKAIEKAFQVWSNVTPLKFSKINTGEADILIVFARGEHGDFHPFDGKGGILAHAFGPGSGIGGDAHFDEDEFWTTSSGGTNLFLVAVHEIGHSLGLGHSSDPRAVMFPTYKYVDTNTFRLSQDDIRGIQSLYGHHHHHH
The assay is described as follows: competitive ELISA: nTIMP-2 (0.8-200 µM) premixed with 500 nM Fab LH11 (the competitor displaced), added to immobilised cdMMP-12 D4, bound Fab detected with anti-Fab-HRP (OD450) [panel A, right].
Experimental: as §3

The target in assay [8] is T2, human MMP-12 catalytic domain wild type …. The assay is described as follows: competitive ELISA: nTIMP-2 (0.8-200 µM) premixed with 500 nM Fab LH6 (the competitor displaced), added to immobilised cdMMP-12 wt, bound Fab detected with anti-Fab-HRP (OD450) [panel B, right].
Experimental: as §3
Assay [9] deals with T3, human MMP-12 catalytic domain mutant D4 …. The assay is described as follows: competitive ELISA: nTIMP-2 (0.8-200 µM) premixed with 500 nM Fab LG4 (the competitor displaced), added to immobilised cdMMP-12 D4, bound Fab detected with anti-Fab-HRP (OD450) [panel A, right].
Experimental: as §3
Assay [10] shares this target. Briefly: competitive ELISA: nTIMP-2 (0.8-200 µM) premixed with 500 nM Fab LH6 (the competitor displaced), added to immobilised cdMMP-12 D4, bound Fab detected with anti-Fab-HRP (OD450) [panel A, right].
Experimental: as §3
The target in assay [11] is T2, human MMP-12 catalytic domain wild type …. The assay is described as follows: BLItz bio-layer interferometry; printed as 'Affinity ... (nM)'.
Assay [12] deals with T1, catalytic domain of human MMP-14 …. Briefly: bio-layer interferometry (ForteBio), biotinylated protease on streptavidin biosensor, Fab in solution [panel 2D9].
Experimental: as §1
For assay [13] the target is unchanged. Briefly: enzyme inhibition assay with FRET peptide substrate (M-2350), Fab titrated on cdMMP-14 [panel 2D9].
Experimental: as §2
Assay [14] shares this target. Briefly: enzyme inhibition assay with FRET peptide substrate (M-2350), Fab titrated on cdMMP-14 [panel 2A6].
Experimental: as §2
Assay [15] has the same target. The assay is described as follows: bio-layer interferometry (ForteBio), biotinylated protease on streptavidin biosensor, Fab in solution [panel 2A6].
Experimental: as §1
Assay [16] addresses T4, Aspergillus fumigatus autophagic serine protease 2 (Alp2) (Aspergillus fumigatus, UniProt P87184 136-495).
T4 construct: range 136-495; Produced active in E. coli periplasm; biotinylated for BLI
T4 sequence: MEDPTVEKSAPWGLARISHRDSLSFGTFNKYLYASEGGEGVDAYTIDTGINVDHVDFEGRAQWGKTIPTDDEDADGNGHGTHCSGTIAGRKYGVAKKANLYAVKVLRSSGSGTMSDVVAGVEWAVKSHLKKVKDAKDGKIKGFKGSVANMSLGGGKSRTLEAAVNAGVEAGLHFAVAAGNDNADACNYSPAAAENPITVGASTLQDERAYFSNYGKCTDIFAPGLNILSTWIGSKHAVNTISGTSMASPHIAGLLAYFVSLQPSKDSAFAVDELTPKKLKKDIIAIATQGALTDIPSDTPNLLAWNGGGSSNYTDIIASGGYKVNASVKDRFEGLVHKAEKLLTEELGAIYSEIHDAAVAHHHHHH
Briefly: enzyme inhibition assay with FRET peptide substrate, Fab titrated on Alp2 [panel B].
Experimental: as §2

The target in assay [17] is T4, Aspergillus fumigatus autophagic serine …. The assay is described as follows: enzyme inhibition assay with FRET peptide substrate (Mca-[..](Dnp)), Fab titrated on Alp2 [panel A4A2].
Experimental: as §2

B1: anti-MMP-14 Fab 2B10 (Fab, V domains shown)
VH: EVQLVESGGGLVQPGGSLRLSCAASGFNIYYSYMHWVRQAPGKGLEWVASIYPSYGYTYYADSVKGRFTISADTSKNTAYLQMNSLRAEDTAVYYCARQLFACWRQSILTPPLLSAMMMGYAMDYWGQGTLVTVSS
VL: DIQMTQSPSSLSASVGDRVTITCRASQSVSSAVAWYQQKPGKAPKLLIYSASSLYSGVPSRFSGSRSGTDFTLTISSLQPEDFATYYCQQYSVAYVWLITFGQGTKVEIKR
notes: Fab from a synthetic human Fab library, produced in E. coli periplasm; also called Clone 2B10
Regarding B1, in assay [1], the off-rate constant (koff) was 0.0018 s⁻¹ and the kon was 40000 M⁻¹ s⁻¹. This molecule registered a half-inhibitory concentration (IC50) in assay [2] of 240 nM. The molecule also showed an inhibition constant Ki in [3] of 210 nM. The molecule further gave an equilibrium dissociation constant (Kd) in [4] of 46 nM.

B2: N-terminal domain of tissue inhibitor of metalloproteinases 2 (nTIMP-2) (other, UniProt P16035 27-153, looked up)
chain: CSCSPVHPQQAFCNADVVIRAKAVSEKEVDSGNDIYGNPIKRIQYEIKQIKMFKGPEKDIEFIYTAPSSAVCGVSLDVGGKKEYLIAGKAEGDGKMHITLCDFIVPWDTLSTTQKKSLNHRYQMGCE
notes: domain: N-terminal domain; Periplasmically expressed and purified as reported elsewhere
For B2, the EC50 in assay [5] was 44000 nM; in [6], 26000 nM; in assay [7] it was 18000 nM; in [8], 32000 nM; in assay [9] it was 42000 nM; in assay [10], 23000 nM. In addition, the affinity in assay [11], expressed as Kd, was 150 nM.

B3: anti-MMP-14 Fab 2D9 (Fab, V domains shown)
VH: EVQLVESGGGLVQPGGSLRLSCAASGFNISSSSMHWVRQAPGKGLEWVASIYPYYGYTYYADSVKGRFTISADTSKNTAYLQMNSLRAEDTAVYYCARGVTRFTNDASVGQVWAGAYGMDYWGQGTLVTVSS
VL: DIQMTQSPSSLSASVGDRVTITCRASQSVSSAVAWYQQKPGKAPKLLIYSASSLYSGVPSRFSGSRSGTDFTLTISSLQPEDFATYYCQQSSYSLITFGQGTKVEIKR
notes: Fab from a synthetic human Fab library, produced in E. coli periplasm; also called Clone 2D9
In [12], B3 registered a koff of 0.0039 s⁻¹ and an on-rate constant (kon) of 15000 M⁻¹ s⁻¹. The IC50 in assay [13] was found to be 260 nM. Moreover, the inhibitory constant (Ki) in assay [3] is 230 nM. The Kd in [4] turned out to be 260 nM.

B4: anti-MMP-14 Fab 2A6 (Fab, V domains shown)
VH: EVQLVESGGGLVQPGGSLRLSCAASGFNFSSSSIHWVRQAPGKGLEWVASISSSYGYTYYADSVKGRFTISADTSKNTAYLQMNSLRAEDTAVYYCARVVRMLPVRCIPRCIKTTLPLYGMDYWGQGTLVTVSS
VL: DIQMTQSPSSLSASVGDRVTITCRASQSVSSAVAWYQQKPGKAPKLLIYSASSLYSGVPSRFSGSRSGTDFTLTISSLQPEDFATYYCQQSSFPFTFGQGTKVEIKR
notes: Fab from a synthetic human Fab library, produced in E. coli periplasm; also called Clone 2A6
As for B4, the midpoint of inhibition in [14], the IC50, lay at 480 nM. Further, in assay [15], the off-rate constant (koff) is 0.003 s⁻¹ and the kon was found to be 24000 M⁻¹ s⁻¹. The Ki in assay [3] was 430 nM. Binding in assay [4] was characterised by a dissociation constant (Kd) of 130 nM.

B5: anti-Alp2 Fab A4A1 (Fab, V domains shown)
VH: EVQLVESGGGLVQPGGSLRLSCAASGFNISSYYIHWVRQAPGKGLEWVASIYSYSSYTYYADSVKGRFTISADTSKNTAYLQMNSLRAGDTAVYYCARFGSWSYAIDYWGQGTLVTVSS
VL: DIQMTQSPSSLSASVGDRVTITCRASQSVSSAVAWYQQKPGKAPKLLIYSASSLYSGVPSRFSGSRSGTDFTLTISSLQPEDFATYYCQQASHLITFGQGTKVEIKR
notes: Fab from a synthetic human Fab library, produced in E. coli periplasm; also called Clone A4A1
For the molecule B5, the IC50 in [16] is 15 nM.

B6: anti-Alp2 Fab A4A2 (Fab, V domains shown)
VH: EVQLVESGGGLVQPGGSLRLSCAASGFNLSSSSMHWVRQAPGKGLEWVASIYPSYSYTYYADSVKGRFTISADTSKNTAYLQMNSLRAEDTAVYYCARKTSDQYLLVGGSFFKLRDCCYVMDYWGQGTLVTVSS
VL: DIQMTQSPSSLSASVGDRVTITCRASQSVSSAVAWYQQKPGKAPKLLIYSASSLYSGVPSRFSGSRSGTDFTLTISSLQPEDFATYYCQQASHLITFGQGTKVEIKR
notes: Fab from a synthetic human Fab library, produced in E. coli periplasm; also called Clone A4A2
In assay [17], B6 showed an IC50 of 250 nM.

The term koff denotes a measure of how fast the partners let go of each other. A word on the kon: it is a measure of how fast the partners come together. As a reminder, the IC50 is the midpoint of a concentration-inhibition curve. Low readings indicate greater potency, high ones weaker potency. What is called Ki is the equilibrium dissociation constant of an inhibitor or competing ligand from its target. A high value points to weaker binding. What is called Kd is the constant that tells how readily two partners part at equilibrium. Read a low Kd as a tighter complex. Usually EC50 stands for the concentration giving half of the maximal effect. Low values mean a more potent agent, high ones a less potent agent.

For the origin of these results see patent publication US20200392251A1 (University of California, published 2020).
